Molecular target: the molecule itself
Assay: crystal structure; sitting-drop vapor diffusion at 20 °C; optimized crystals from 2.4 M ammonium sulfate, 0.1 M citric acid pH 3.5; space group P3(1)21; 2.8 Å; apo form; dimer in the asymmetric unit

B1: Saccharomyces cerevisiae phosphoserine aminotransferase (enzyme, S. cerevisiae, UniProt P33330 1-395, looked up)
chain: MSLEREEPQHFGAGPAQMPTPVLQQAAKDLINFNDIGLGIGEISHRSKDATKVIEDSKKHLIELLNIPDTHEVFYLQGGGTTGFSSVATNLAAAYVGKHGKIAPAGYLVTGSWSQKSFEEAKRLHVPAEVIFNAKDYNNGKFGKIPDESLWEDKIKGKAFSYVYLCENETVHGVEWPELPKCLVNDPNIEIVADLSSDILSRKIDVSQYGVIMAGAQKNIGLAGLTLYIIKKSILKNISGASDETLHELGVPITPIAFDYPTVVKNNSAYNTIPIFTLHVMDLVFQHILKKGGVEAQQAENEEKAKILYEALDANSDFYNVPVDPKCRSKMNVVFTLKKDGLDDQFLKEAAARHLTGLKGHRSVGGFRASIYNALSVKAVQNLVDFIKEFAEKNA
notes: Phosphoserine aminotransferase (PSAT) of S. cerevisiae, encoded by SER1; full-length gene amplified from genomic DNA and cloned into pET28a; residues 1-395 (large domain 54-293, small domain 294-395); apo form without PLP; residues 1-53, 218-220 and 268-271 not modelled in the crystal structure; they may come from different strains; also called ScPSAT; PSAT; source: E. coli BL21 (DE3) Star, …
- stoichiometry N: 2

— paper PMC10049462, “Molecular Structure of Phosphoserine Aminotransferase from Saccharomyces cerevisiae” (International Journal of Molecular Sciences, 2023)
